Article PMC11203950, “Folding and Binding Kinetics of the Tandem of SH2 Domains from SHP2” (International Journal of Molecular Sciences, 2024)
Values belong to the substance of their own block, whether it stands above or below them.

Tests used:
NSH2-CSH2 tandem of SHP2 [1] = biological target: T1, NSH2-CSH2 tandem of SHP2 (Homo sapiens, UniProt Q06124); assay: Kinetic displacement of peptide from NSH2-CSH2 tandem by Gab2T; assay type: binding; conditions: for rate constant in displacement by Gab2T: pH 7.2, 10 °C
T1 construct: The constructs encoding the isolated NSH2 domain, the isolated CSH2 domain, and the NSH2-CSH2 tandem were subcloned in a pET28b+ plasmid vector; made in house; host or cells: Escherichia coli BL21 (DE3)
T1 sequence (Q06124 1-220 limits assumed): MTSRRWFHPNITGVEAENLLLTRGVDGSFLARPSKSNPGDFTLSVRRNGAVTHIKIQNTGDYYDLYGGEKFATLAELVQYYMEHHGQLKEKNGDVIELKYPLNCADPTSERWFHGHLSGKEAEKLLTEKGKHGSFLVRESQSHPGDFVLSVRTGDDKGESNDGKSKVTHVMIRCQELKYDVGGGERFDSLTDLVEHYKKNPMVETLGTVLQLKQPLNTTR
Source text: (§1) In analogy to our previous works, we performed kinetic binding experiments by challenging the NSH2-CSH2 tandem with peptides mimicking different portions of Gab2, namely Gab2_608–620 (binding the NSH2 domain) and Gab2_637–649 (binding the CSH2 domain). From now on, the two peptides will be named, respectively, Gab2N and Gab2C, while the peptide mimicking the entire segment of Gab2 binding both SH2 domains, and corresponding to Gab2_608–649, will be named Gab2T. To compare data with our previous works, the experiments were performed in buffer Hepes 50 mM, NaCl 300 mM, 2 mM DTT, pH 7.2, at 10 °C, by following the FRET signal occurring through the excitation of the tryptophan residues in the NSH2-CSH2 tandem with light at 280 nm and following the change in fluorescence of the dansyl group covalently attached to the N-terminus of the peptides.
We also resorted to monitoring the binding reaction between the NSH2-CSH2 tandem with the Gab2T peptide. […] To obtain information about the ability of the NSH2-CSH2 to bind Gab2T, we performed kinetic displacement experiments in order to test the ability of Gab2T to displace Gab2N and Gab2C. […] These two values are in great agreement with what was previously calculated in binding experiments of the isolated domains.
Kinetic experiments of binding between the NSH2, CSH2 and NSH2-CSH2 tandem and the peptides mimicking different portions of Gab2 were measured by monitoring FRET between the tryptophan, acting as a donor, and a dansyl group covalently attached to the N-terminus of the peptides, acting as acceptor. […] The excitation wavelength used was 280 nm while the fluorescence emission was collected using a 475 nm cutoff glass filter. […] The observed rate constants were calculated from the average of 3–6 single traces and by fitting the time-course for binding using a single exponential equation y=Aexp−kobs t+c where A is the amplitude of the kinetic trace, kobs the observed rate constant and c the final fluorescence value of the trace. […]

NSH2 domain = biological target: T2, NSH2 domain (Homo sapiens, UniProt Q06124); assay: Kinetic binding (stopped-flow, FRET Trp-dansyl) to the isolated NSH2 domain
T2 construct: The constructs encoding the isolated NSH2 domain, the isolated CSH2 domain, and the NSH2-CSH2 tandem were subcloned in a pET28b+ plasmid vector; made in house; host or cells: Escherichia coli BL21 (DE3)
T2 sequence (Q06124 6-102 limits assumed): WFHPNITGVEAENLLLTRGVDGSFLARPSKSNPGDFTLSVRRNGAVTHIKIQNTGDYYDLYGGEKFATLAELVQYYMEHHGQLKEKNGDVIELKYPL
Source text: as §1, with “peptides. […]” for “peptides.”
Kinetic experiments of binding between the NSH2, CSH2 and NSH2-CSH2 tandem and the peptides mimicking different portions of Gab2 were measured by monitoring FRET between the tryptophan, acting as a donor, and a dansyl group covalently attached to the N-terminus of the peptides, acting as acceptor. […] The excitation wavelength used was 280 nm while the fluorescence emission was collected using a 475 nm cutoff glass filter. […]

NSH2-CSH2 tandem of SHP2 [2] = biological target: T1, NSH2-CSH2 tandem of SHP2; assay: Kinetic binding (stopped-flow, FRET Trp-dansyl) to the NSH2-CSH2 tandem; conditions: for kon (microscopic association rate constant): Hepes 50 mM, NaCl 300 mM, 2 mM DTT
Source text: as §1
First, to test whether the presence of the contiguous CSH2 affected the affinity of the NSH2 domain for Gab2, we mixed a constant concentration of dansylated Gab2N (1 µM) vs. increasing concentrations of NSH2-CSH2 (ranging from 2 µM to 9 µM). The obtained observed rate constant (kobs) as a function of the concentration of the NSH2-CSH2 tandem was fitted with a linear equation, the slope corresponding to the microscopic association rate constant (kon) and the intercept with the y-axis to the microscopic dissociation rate constant (koff). To directly measure the koff, we performed displacement experiments by rapidly mixing a preincubated complex of NSH2-CSH2 with dansylated Gab2N (both at a constant concentration of 2 µM) versus a high excess of non-dansylated Gab2N (50 µM).
We also resorted to monitoring the binding reaction between the NSH2-CSH2 tandem with the Gab2T peptide. […] To obtain information about the ability of the NSH2-CSH2 to bind Gab2T, we performed kinetic displacement experiments in order to test the ability of Gab2T to displace Gab2N and Gab2C. Thus, in two separate experiments, we rapidly mixed a preincubated complex of NSH2-CSH2 with Gab2N (both at a constant concentration of 2 µM) versus an excess of Gab2T (50 µM) and a preincubated complex of NSH2-CSH2 with Gab2C (both at constant concentrations of 2 µM and 10 µM, respectively) versus an excess of Gab2T (50 µM) (Figure 5C). Importantly, in the two experiments, we could calculate two different rate constants, respectively, of 1.2 ± 0.3 s^−1 in the case of Gab2N, and 82 ± 1 s^−1 in the case of Gab2C. These two values are in great agreement with what was previously calculated in binding experiments of the isolated domains.
Kinetic experiments of binding between the NSH2, CSH2 and NSH2-CSH2 tandem and the peptides mimicking different portions of Gab2 were measured by monitoring FRET between the tryptophan, acting as a donor, and a dansyl group covalently attached to the N-terminus of the peptides, acting as acceptor. The experiments were performed on a single-mixing SX-18 stopped-flow instrument (Applied Photophysics, Leatherhead, UK) recording the change of dansyl emission. The excitation wavelength used was 280 nm while the fluorescence emission was collected using a 475 nm cutoff glass filter. The binding experiments were carried out at 25 °C mixing a constant concentration of dansylated peptide (1 μM) versus increasing concentrations of NSH2, CSH2 and NSH2-CSH2 (ranging from 2 to 10 μM). The buffer used was Hepes 50 mM, NaCl 300 mM, pH 7.2. The observed rate constants were calculated from the average of 3–6 single traces and by fitting the time-course for binding using a single exponential equation y=Aexp−kobs t+c where A is the amplitude of the kinetic trace, kobs the observed rate constant and c the final fluorescence value of the trace. The dependences of kobs as a function of ligand concentrations were fitted with a linear equation kobs=kon ligand+koff where kon is the microscopic association rate constant, and koff the microscopic dissociation rate constant.

- rate constant in displacement by Gab2T (NSH2-CSH2 tandem of SHP2 [1]; preincubated NSH2-CSH2 (2 µM) with Gab2C (10 µM) vs excess Gab2T (50 µM)): 82 ± 1 s⁻¹
- binding to isolated NSH2 domain, kinetic traces (NSH2 domain; NSH2 domain mixed with different concentrations of Gab2C peptide): no kinetic traces could be recorded
Substance: Gab2C: peptide mimicking Gab2_637–649 (binding the CSH2 domain)

- displacement of Gab2N and Gab2C from NSH2-CSH2 (NSH2-CSH2 tandem of SHP2 [1]; Gab2T 50 µM, pH 7.2): able to displace both peptides
Substance: Gab2T: peptide mimicking the entire segment of Gab2 binding both SH2 domains, corresponding to Gab2_608–649 (STGSVDYLALDFQPSSPSPHRKPSTSSVTSDEKVDYVQVDKE; UniProt Q9UQC2 608-649, looked up, fragment)
- kinetic binding to NSH2-CSH2, fluorescence change (NSH2-CSH2 tandem of SHP2 [2]; Gab2T not available in dansylated form): did not return any change in fluorescence

- rate constant in displacement by Gab2T (NSH2-CSH2 tandem of SHP2 [1]; preincubated NSH2-CSH2 with Gab2N (both 2 µM) vs excess Gab2T (50 µM)): 1.2 ± 0.3 s⁻¹
- koff (microscopic dissociation rate constant) (NSH2 domain; isolated NSH2 domain, pH 7.2): 1.8 ± 0.1 s⁻¹
- kon (microscopic association rate constant) (NSH2-CSH2 tandem of SHP2 [2]; dansylated Gab2N 1 µM vs NSH2-CSH2 2 to 9 µM, no Gab2C, pH 7.2, 10 °C, excitation 280 nm, average of 3–6 traces): 37.3 ± 0.8 µM⁻¹ s⁻¹
- kon (microscopic association rate constant) (NSH2-CSH2 tandem of SHP2 [2]; dansylated Gab2N vs NSH2-CSH2, in the presence of 10 µM Gab2C, pH 7.2, 10 °C): 16.4 ± 0.2 µM⁻¹ s⁻¹
- kon (microscopic association rate constant) (NSH2-CSH2 tandem of SHP2 [2]; dansylated Gab2N vs NSH2-CSH2, in the presence of 20 µM Gab2C, pH 7.2, 10 °C): 14.4 ± 0.2 µM⁻¹ s⁻¹
- koff (microscopic dissociation rate constant) (NSH2-CSH2 tandem of SHP2 [2]; displacement of preincubated NSH2-CSH2/dansylated Gab2N (both 2 µM) by excess non-dansylated Gab2N (50 µM), pH 7.2, 10 °C): 1.8 ± 0.1 s⁻¹
- KD, calculated as koff/kon, tandem compared to isolated NSH2 domain (NSH2-CSH2 tandem of SHP2 [2]; no Gab2C, pH 7.2): lower KD
Substance: Gab2N: peptide mimicking Gab2_608–620 (binding the NSH2 domain); used dansylated at the N-terminus and non-dansylated
